Experiment [1] deals with PICK1 (protein interacting with C-kinase 1) (UniProt Q9EP80).
Sequence of UniProt Q9EP80 (Q9EP80 whole entry): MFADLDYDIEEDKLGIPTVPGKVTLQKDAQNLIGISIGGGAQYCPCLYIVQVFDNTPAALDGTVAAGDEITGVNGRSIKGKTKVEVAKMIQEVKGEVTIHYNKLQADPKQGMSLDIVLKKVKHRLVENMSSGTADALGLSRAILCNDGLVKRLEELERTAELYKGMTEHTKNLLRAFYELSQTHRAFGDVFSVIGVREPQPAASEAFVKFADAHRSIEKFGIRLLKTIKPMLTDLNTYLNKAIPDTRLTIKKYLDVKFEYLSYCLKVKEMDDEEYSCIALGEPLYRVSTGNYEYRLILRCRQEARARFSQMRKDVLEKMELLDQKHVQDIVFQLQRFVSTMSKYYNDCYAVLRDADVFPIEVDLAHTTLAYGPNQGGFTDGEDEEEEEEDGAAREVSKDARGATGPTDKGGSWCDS

As for GCN4(7P14P)-HWLKV (peptide), the inhibition constant (Ki) (as a rule, a measure of affinity in units of concentration, obtained from inhibition or displacement) in experiment [1] is 548 nM.

As for GCN4-GS (peptide), the stoichiometry N (usually a count of units in the complex or per binding partner) in the experiment with GCN4-GS (yeast) is 2.

On to GCN4-HWLKV (peptide), for which, in experiment [1], the Ki was found to be 119 nM.

Source of the values: paper doi:10.1101/2023.03.03.530962.
